# Laboratory results published in patent publication US20100120124A1 (CONSEJO SUPERIOR DE INVESTIGACIONES CIENTIFICAS, published 2010).
# B1: fusion antibody EspF-Vgfp (EspF20 signal fused to camel VHH anti-GFP with C-terminal 6xhis and E-tag) (VHH)
# VHH: QVQLVESGGALVQPGGSLRLSCAASGFPVNRYSMRWYRQAPGKEREWVAGMSSAGDRSSYEDSVKGRFTISRDDARNTVYLQMNSLKPEDTAVYYCNVNVGFEYWGQGTQVTVSS
# notes: also called product of plasmid pEspFVgfp
# B2: fusion antibody EspF-Vamy (EspF20 signal fused to camel VHH anti-amylase with C-terminal 6xhis and E-tag) (VHH)
# VHH: QVQLVESWGGSVQAGGSLRLSCTAPGFTSNSCRMDWYRQAAGKQREWVSSISTDGRTSYADSVKGRFTISKDKAKDTVYLQMNSLKPEDTAIYYCAVRTNGYRPQSHEFRYWGPGTQVTVSS
# notes: also called EspF20-Vamy; product of plasmid pEspFVamy
# Legend:
# [1] = molecular target: T1, α-amylase (pig pancreatic enzyme α-amylase, Sigma) (pig, UniProt P00690 16-511); experiment: ELISA, supernatant of EPEC culture on coated antigen, anti-E-tag-POD
# T1 sequence: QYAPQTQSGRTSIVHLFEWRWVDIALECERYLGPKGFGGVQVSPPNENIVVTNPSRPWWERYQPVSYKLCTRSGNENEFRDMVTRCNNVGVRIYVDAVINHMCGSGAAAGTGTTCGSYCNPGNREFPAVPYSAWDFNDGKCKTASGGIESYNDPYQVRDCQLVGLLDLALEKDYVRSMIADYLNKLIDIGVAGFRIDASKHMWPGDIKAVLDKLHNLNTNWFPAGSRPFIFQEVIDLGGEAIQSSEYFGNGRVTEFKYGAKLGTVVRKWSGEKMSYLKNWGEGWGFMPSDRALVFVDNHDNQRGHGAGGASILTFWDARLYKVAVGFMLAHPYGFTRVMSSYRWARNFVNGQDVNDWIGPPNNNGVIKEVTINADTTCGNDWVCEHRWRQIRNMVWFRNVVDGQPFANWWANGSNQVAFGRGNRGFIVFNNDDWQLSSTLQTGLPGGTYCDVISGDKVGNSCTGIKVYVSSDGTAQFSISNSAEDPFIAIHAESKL
# [2] = molecular target: T2, bovine seroalbumin (BSA, Roche) (bovine, UniProt P02769 25-607); experiment: as above
# T2 construct: also called bovine albumin
# T2 sequence (P02769 25-607 limits assumed): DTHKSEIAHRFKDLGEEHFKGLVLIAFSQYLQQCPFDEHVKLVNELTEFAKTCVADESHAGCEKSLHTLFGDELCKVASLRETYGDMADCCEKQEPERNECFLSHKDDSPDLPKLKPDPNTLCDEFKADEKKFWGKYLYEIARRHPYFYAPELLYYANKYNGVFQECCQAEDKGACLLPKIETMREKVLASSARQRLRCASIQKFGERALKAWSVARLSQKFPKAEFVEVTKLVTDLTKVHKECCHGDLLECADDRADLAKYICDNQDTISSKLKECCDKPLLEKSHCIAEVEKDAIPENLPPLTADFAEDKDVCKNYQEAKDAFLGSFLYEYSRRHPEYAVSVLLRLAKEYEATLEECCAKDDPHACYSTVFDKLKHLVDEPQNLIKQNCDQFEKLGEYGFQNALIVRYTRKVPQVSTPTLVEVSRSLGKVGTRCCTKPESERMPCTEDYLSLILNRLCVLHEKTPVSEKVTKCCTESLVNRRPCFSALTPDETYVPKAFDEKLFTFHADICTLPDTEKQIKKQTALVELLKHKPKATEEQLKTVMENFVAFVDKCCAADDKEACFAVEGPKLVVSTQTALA
Binder,binding result [1],binding result [2]
B1,no binding,no binding
B2,binds,no binding
